Experimental findings from US12673985B2, “Method for the treatment or prophylaxis of cancer by targeting the extracellular portion of keratin 14 (KRT14) residing on cancer cells” (Hudson Institute of Medical Research, priority 2019, dated 2026) are described below.

The subject of series [1] is KRT14+ cells. In words: Flow cytometry for KRT14+ cell populations in ovarian cancer cells. In kind it is cell-based, human and murine. Particulars: mAb AN-17 1:200. As for the experimental part:
Flow cytometry was carried out according to standard protocols (PMID: 30602661), with data acquired using a BD LSRFortessa X-20 (BD Biosciences) and analysed using FlowJo software v10.5.0 (BD Biosciences). Samples assessed for KRT14+ cell populations included OVCAR3, CAOV4, ID8 mouse ovarian cancer cells, ascites-derived ovarian cancer cells derived from a clinical specimen (designated #3.1937-07) and cardiac blood from a mice bearing 12-week old epithelial ovarian tumours. For cell lines, 1×10^6 cells per cell line were incubated with either mAb AN-17 (1:200 dilution) or a commercially available anti-KRT14 polyclonal antibody (Sigma SAB4501657; 1:50 dilution) as a positive control for 45 mins in non-immune serum at room temperature. The secondary antibodies, goat anti-mouse Alexa647 (mAb AN-17) or goat anti-rabbit IgG Alexa 488 (commercial Ab), were diluted 1:500 and incubated for 30 minutes. For blood samples, 2×10^6 cells were incubated with an Alexa Fluor®488-conjugated mAb AN-17 antibody for 45 minutes. Following PBS washes, cells were resuspended in PBS/2% FBS data was acquired using a BD LSRFortessa X-20 (BD Biosciences) flow cytometer.

Series [2] relates to Murine ID8 ovarian tumour. In words: Treatment of established primary ID8 ovarian tumours in syngeneic mouse model. In kind it is in vivo, C57BL/6 mice. Particulars: 5 mg/kg i.p. bi-weekly for 3 weeks. As for the experimental part:
Mice with primary tumours (n=10/group) received mAb AN-17 at 5 mg/kg by intraperitoneal injection bi-weekly, for a period of 3 weeks. Control animals received an equivalent dose of isotype-matched control IgG kappa antibody (Control Group 1); or and equivalent volume of vehicle (PBS) alone (Control Group 2). Following 3 weeks of bi-weekly treatment (Mondays and Thursdays), all mice were culled and assessed for tumour size and weight. Two additional, non-tumour bearing animals were used as non-surgical controls.

Series [3] has as its system SJ-GBM2 primary glioblastoma multiforme. Nature of the series: In vitro wound repair assay. In kind it is cell-based. Particulars: mAb 1 μg/ml; 16 hrs. As for the experimental part:
In vitro wound repair assays were conducted on the following cancer cell lines: BT16 atypical teratoid rhabdoid (brain) carcinoma, NCI-H1573 lung adenocarcinoma, SJ-GBM2 primary glioblastoma multiforme, AN3CA endometrial carcinoma, SW620 colorectal carcinoma and MDA-MB-468 breast carcinoma. Cells were grown in complete medium to confluency in a 12-well plate, and subsequently serum-starved overnight to synchronize at G0. The following day, cell culture medium was removed and the cell monolayers were wounded by scraping with a pipette tip attached to suction. Non-adherent cells were removed by gentle washes with phosphate buffered saline (PBS) and complete growth medium was added to each well, in either the absence or presence of mAb AN-17 (at 1 μg/ml). The wound area was imaged every hour for 0-24 hours. Wound closure was measured in image series using AnalySIS LS Research Software (Olympus) to determine the area of the wound on each day. Experiments were repeated in triplicate with at least six wound areas observed per growth condition.

Series [4] concerns the target T1, full-length recombinant KRT14 protein (Homo sapiens, UniProt P02533).
T1 construct: A 1 μg aliquot of full-length recombinant KRT14 protein (Abcam #ab73637) was separated by SDS PAGE; purchased Abcam ab73637
T1 sequence (P02533 1-472): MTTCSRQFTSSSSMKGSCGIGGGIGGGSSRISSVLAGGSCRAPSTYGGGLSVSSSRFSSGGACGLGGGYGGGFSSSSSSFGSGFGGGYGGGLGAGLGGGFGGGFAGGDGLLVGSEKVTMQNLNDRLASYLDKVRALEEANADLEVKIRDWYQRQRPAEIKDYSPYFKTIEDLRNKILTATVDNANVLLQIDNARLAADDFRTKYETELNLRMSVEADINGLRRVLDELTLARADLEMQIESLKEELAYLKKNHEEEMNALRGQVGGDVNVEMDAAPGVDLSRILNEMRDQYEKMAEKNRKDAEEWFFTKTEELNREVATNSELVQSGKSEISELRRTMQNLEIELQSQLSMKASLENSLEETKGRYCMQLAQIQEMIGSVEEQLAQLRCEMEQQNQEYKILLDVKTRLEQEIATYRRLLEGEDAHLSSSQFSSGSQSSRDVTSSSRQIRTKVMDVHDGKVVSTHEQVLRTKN
Nature of the series: Western blotting for KRT14 detection. In kind it is binding. Particulars: dilutions 1:1000 to 1:10,000; 1 μg protein. As for the experimental part: Western Blot analyses. SDS-PAGE and western blotting were performed as previously described in Bilandzic et al. (2013) Mol Endocrinol, 2013. 27(3):466-79). Blots were probed using antibodies against KRT14 (1:1000, SAB4501657), mAb AN-17 and β-actin (1:20,000; Sigma-Aldrich, Castle Hill, Australia). Secondary antibodies HRP-conjugated goat anti-mouse, anti-rabbit and donkey anti-goat (1:50,000; Merck Millipore, Kilsyth, Australia) were used Bilandzic et al. (2013) Mol Endocrinol, 2013. 27(3):466-79). Protein bands were detected using Clarity Western ECL blotting substrate (Biorad #1705061) and visualized using a ChemiDoc (Trade Mark) MP System (Bio-Rad, #1708280).
A 1 μg aliquot of full-length recombinant KRT14 protein (Abcam #ab73637) was separated by SDS PAGE and transferred to PVDF membrane using standard procedures (PMID: 23952987). The membrane was probed with mAb AN-17 at dilutions of 1:1000, 1:5000 and 1:10,000. Secondary antibody was goat anti-mouse HRP conjugate (1:50,000 dilution), with detection of KRT14 using chemiluminescence according to standard protocols (PMID: 23952987; Rainczuk et al., J Proteome Res. 2013; 12(9):4074-88).

Entries after “also recorded” stand apart in the source; their conditions may differ.

B1: mAb AN-17: monoclonal anti-KRT14 antibody; heavy chain variable region SEQ ID NO:3, light chain variable region SEQ ID NO:5 (clone AN-17A RG4.E5b.A7.B4) (antibody, listed as Mus musculus, V domains shown)
VH: QVQLKESGPGLVAPSQSLSITCTVSGFSLSRYSVHWVRQPPGKGLEWLGMIWGGGSTDYNSALKSRLSISKDNSKSQVFLKMNSLQTDDTAMYYCARKDYGYSYFDYWGQGTTLTVSS
VL: DVLMTQTPLSLPVSLGDQASISCRSSQSIVHSNGNTYLEWYLQKPGQSPKLLIYKVSNRFSGVPDRFSGSGSGTDFTLKISRVEAEDLGVYYCFQGSHVPFTFGSGTKLEIKRADAAPTVS
Consider B1, for which the “detection of KRT14+ cells by flow cytometry compared to Sigma SAB4501657” value in series [1] was “comparable sensitivity”. Further, in series [2], the “adverse effects during treatment” value is listed as “had no observable adverse effects on animals; also recorded: no adverse effects noted during the treatment period”. For the same molecule, in series [2] (n=10/group), the “primary ovarian tumours at cull / tumour progression” value is “no tumours could be identified; also recorded: complete regression”. For the same molecule, the “wound closure / migration, SJ-GBM2” value in series [3] is “failed to close the wound; also recorded: impaired”. For the same molecule, the “detection of KRT14 protein by western blotting” value in series [4] was “successfully detected KRT14 protein”.
